{"source": "patent US8343490B2", "about": "“Monoclonal antibody SC104 and derivative thereof specifically binding to a sialyltetraosyl carbohydrate as a potential anti-tumor therapeutic agent” (Cephalon Australia Pty Ltd, priority 2004, dated 2013)", "molecules": {"B1": {"name": "SC104: mouse IgG1 monoclonal antibody specific for a sialyltetraosyl carbohydrate, raised by immunisation with colorectal cancer cell lines (antibody, V domains shown)", "VH": "DVQLQESGPDLVKPSQSLSLTCTVTGYSITSGYSWHWVRQFPGNKMEWMGHIHFSGRPTYNPSLSSRISITRDTSKNQFLLQLKFVTTEDTSTYFCARKGKGSDDGLNYWGQGISVTVSS", "VL": "ENVLTQSPVIMSASPGEKVTMTCSASSSLSYIHWYQQKSRTSPKLWIYDTSNLASGVPGRFSGSGSGNSYSLTISSMEAEDVATYYCFQGSEYPLTFGGGTKLEMT"}}, "key": {"[1]": {"assay": "HPTLC immunostaining of C170 lipid extract fractions", "type": "binding", "description": "• Lipid extraction from C170 tumour cells. A pellet of C170 cells (1 ml packed cell volume) was obtained by trypsinisation of a static adherent tissue culture. The pellet was washed in PBS and the excess buffer removed by aspiration following centrifugation, then stored at −80° C. The pellet was extracted with chloroform:methanol (3:1, v/v, 19 ml). The resultant emulsion was centrifuged at 8,000 rpm in a 50 ml solvent resistant (Tefzel) centrifuge tube for 15 min at 4° C. The supernatant was dried down using a rotary evaporator at 30° C. and resuspended in a small volume (˜1 ml) chloroform:methanol:0.5% CaCl2(aq) (50:40:10). • HPTLC analysis of lipid extracts The sample was multiply spotted onto a Merck HPTLC plate and developed in chloroform:methanol:0.5% CaCl2(aq) (50:40:10) as standard. The plates were dried and then placed in an iodine vapour tank. Bands were marked in pencil and the iodine allowed to evaporate off the plate over night. The plates were then immunostained in order to localise the antigen. • Immunostaining of developed HPTLC plates. For SC104 immunostaining, the plates were immersed in polyisobutyl methylmethacrylate (0.1% w/v solution) hexane:chloroform (9:1) for 15 seconds then allowed to dry. The plates were then blocked in 3% BSA in PBS for 1 hr at room temperature, followed by incubation in either test antibody solution (10 μg/ml) or BSA solution, for 1 hr at room temperature. The plates were then washed three times in PBS/Tween-20 (0.1%), before being incubated in rabbit anti-mouse HRP conjugate from Dako (1/250 in PBS) for 1 hr at room temperature. The plates were then washed three times in PBS/Tween −20(0.1%) and once in 10 mM Tris, 100 mM NaCl pH 7.0, 0.1% Tween and developed in Sigma-FAST […] reagent. • Chemical staining of developed HPTLC plates. Orcinol staining was employed to detect the presence of carbohydrate moieties. Developed HPTLC plates were allowed to dry before spraying with orcinol reagent until fully coated. The plates were dried in a stream of hot air and incubated at 100° C. for 15 minutes. Ninhydrin staining was used to detect molecules containing free amino groups. Developed HPTLC plate were first allowed to dry and then dipped in ninhydrin solution (0.25% ninhydrin w/v in acetone) until fully wetted. The plate was then allowed to develop at room temperature for several hours. Results\n• Silica column fractionation of lipid extract. A gravity column (150 mm i.d.) was packed with a silica slurry in chloroform:methanol:0.5% CaCl2(aq) (50:40:10). The C170 extract, re-dissolved in ˜1 ml chloroform:methanol:0.5% CaCl2(aq) (50:40:10) was loaded onto the column and eluted using the same solvent conditions. Fractions were collected and analysed by HPTLC. […]"}, "[2]": {"tested_on": "freshly disaggregated colorectal tumour cells", "assay": "Primary tumour binding, flow cytometry", "description": "• Primary tumour binding. Tumour specimens were obtained at the time of colorectal cancer resection. Specimens were finely minced and disaggregated with 0.05% collagenase (Type IV, Boehringer Mannheim, Lewes, UK) for 20 min at 37° C. The tumour cell suspension was removed and washed 3 times in Hanks balanced salt solution (Gibco BRL, Paisley, UK). Fresh collagenase was added to the remaining tissue and it was reincubated for a further 20 min. This procedure was repeated twice before combining cells from all dissociations and resuspending them in Dulbecco's medium containing 20% fetal calf serum (Gibco). Cells were incubated for 1 hr at 4° C. with SC104 mab (1 μg). […] Normal mouse immunoglobulin was used as a negative control and this fluorescence was subtracted from the fluorescence obtained with SC104. […] Results are expressed as mean linear fluorescence (MLF). […] The percentage of epithelial cells is measured by staining of cytokeratin mab Cam 5.2. was only 22±13% (range 10-60). However, following forward angle light scatter gating to selectively analyse cells in the malignant cell size range 79±4% (range 69-86) of the cells analysed were epithelial. […] The percentage of leukocytes as measured by staining with the anti-CD45 mab F-10-89 in the total nucleate population was 74±16 (range 40-90). […]"}, "[3]": {"tested_on": "normal colon", "assay": "Immunohistochemistry of normal colon (screening)", "type": "binding", "design": "key: −: negative; +: minimal; 2+: strong; 3+: very strong"}, "[4]": {"tested_on": "C170 cells", "assay": "Inhibition of SC104 cell death by z-FMK-vad caspase inhibitor", "type": "cell-based", "settings": "3 μg/ml SC104 with 3 μM z-FMK-vad inhibitor, overnight; annexin V FITC/PI", "description": "SC104 inhibition of cell death using the z-FMK-vad caspase inhibitor. 2×10^5 C170 cells were subjected to 3 μg/ml of SC104 and half were also incubated with 3 μM z-FMK-vad inhibitor (Promega, catalogue number G7232) and incubated overnight. The following day cell viability was assayed using annexin V FITC and propidium iodide."}, "[5]": {"assay": "HPTLC immunostaining of commercially available lipid standards", "type": "binding", "settings": "standards of Table 6 (lactosyl ceramide, Gb3, globoside, Forrsman, GM3, AGM1, GM1, GD3, GD1a, GD1b, GT1b)", "description": "The SC104 antigen has been compared to a number of commercially available lipid standards. Examples of each standard were spotted onto HPTLC plates and developed in 50:40:10 chloroform:methanol:CaCl2 (0.5% w/v). Plates were also spotted with partially purified SC104 antigen. Migration of each standard was detected by iodine vapour staining and the location of each marked on the plate. Plates were then probed with SC104."}}}
{"molecule": "B1", "values": [{"measurement": "binding after chemical removal of sialic acids (acid hydrolysis)", "setting": "[1]; 0.05 M sulphuric acid, 80° C., 2 hrs", "result": "complete loss of SC104 binding"}, {"measurement": "binding to asialo form", "setting": "[1]; HPTLC immunostaining", "result": "does not bind to an asialo form"}, {"measurement": "binding to sialylated glycolipid forms", "setting": "[1]; HPTLC immunostaining, silica column fractions", "result": "bind to a mono, di and even polysialylated glycolipid"}, {"measurement": "binding after ceramide glycanase removal of oligosaccharides", "setting": "[1]; aqueous and organic phase, FIG. 8", "result": "loss of SC104 binding in both fractions"}, {"measurement": "freshly disaggregated colorectal tumour cells bound strongly", "setting": "[2]; FIG. 3", "result": "> 80", "unit": "%"}, {"measurement": "mean antigen density", "setting": "[2]; freshly disaggregated colorectal tumour cells", "result": "4×10^5 antigens per cell"}, {"measurement": "Immunohistochemistry Normal colon", "setting": "[3]", "result": "+"}, {"measurement": "increase in viable cells in the presence of the inhibitor", "setting": "[4]", "result": 23, "unit": "%"}, {"measurement": "recognition of lipid standards", "setting": "[5]", "result": "none of the standards were recognised by SC104"}]}
